The text below walks through data of patent publication US20180326085A1.

The target of this test is biotinylated recombinant human c-MET ECD (HGFR extracellular domain) (human) (UniProt P08581). The experiment in a line: HGF competition ELISA: HGF on the plate, biotinylated c-MET ECD pre-incubated with the antibody; blocked ligand HGF. For orientation: An ELISA detects its analyte on a solid surface through an enzyme-linked reagent.

Turning to 224G11 (antibody), the IC50 (read off the curve) is 3 nM.
